Substitutions are numbered along the chain they refer to.
B1: TKD: fusion protein: tumour-cell-penetrating peptide BR2, anti-KRas nanobody VHH and lysosome recognition peptide CTM; SEQ ID NO.4 (protein)
chain: RAGLQFPVGRLLRRLLRDVQLQESGGGLVQAGGSLRLSCVASGRTFSTYPTGWFRQAPGKEREFVARINLSGGITNYADSVKGRFTISRDNAKNTVYLQMNSLKPEDTAVYYCGGGSTTWAGGIPTNFDYWGQGTQVTVSSGRKFERQKILDQRFFE
B2: TKDm: control molecule of TKD with mutated CTM fragment (CTMmt) which could not be recognized by a lysosome; SEQ ID NO.5 (protein)
chain: B1 chain with Q148A, Q153A

Columns and labels:
HCT116 (KRas G13D) = experiment: CCK-8 cell proliferation experiment, HCT116; details: 10 and 20 μg/mL, 24 hours
Text: (§1) CCK-8 was a highly sensitive and non-radioactive colorimetric method for determining the number of living cells in the cell proliferation or toxicity test.

HT29 (KRas wt) = experiment: CCK-8 cell proliferation experiment, HT29; details: 10 and 20 μg/mL, 24 hours
Text: as §1

KRas protein = target: T1, KRas protein (Homo sapiens, UniProt P01116); experiment: SPR binding capacity experiment (BiacoreT200); details: in vitro; for binding capacity with the KRas protein (SPR): molecule coupled on CM5 chip, KRas flowing
T1 construct: made in house
Protocol: 100 μL of coating solution was added into each well of 96-well ELISA plate to coat overnight at 4° C. • (3) Blocking: the ELISA plate was cleaned with a phosphate buffer solution (PBS) (PBS formula: 4 g of NaCl, 0.1 g of KCl, 1.815 g of disodium hydrogen phosphate dodecahydrate, and 0.12 g of […], dissolved in 400 mL of ultrapure water, with a constant volume of 500 mL for use) for 5 minutes each time. 300 μL of 5% (w/v) bovine serum albumin was added into each well, and blocked at 37° C. for 2 hours. • (4) Adding of the purified protein KRas: 6.25 μg, 12.5 μg, 25 μg, 50 μg and 100 μg of purified protein were respectively pre-mixed and diluted in 200 μL of PBS, and the diluted KRas protein was added into the wells in sequence, and slowly shaken at the room temperature for 5 hours. […] Main steps of the example were as follows: • (1) Coupling of ligand: the target coupling amount was calculated according to the following formula:
[formula] wherein Rmax was the maximum binding capacity on the chip surface, and 100 RU was usually substituted in a protein test. […] Through the preconcentration experiment, it was determined that pH 5.0 was the optimal coupling condition. […] In this experiment, aimforimmobilized level was selected, and the calculated 110RU was inputted in target level. […]

T1 sequence (P01116 whole entry): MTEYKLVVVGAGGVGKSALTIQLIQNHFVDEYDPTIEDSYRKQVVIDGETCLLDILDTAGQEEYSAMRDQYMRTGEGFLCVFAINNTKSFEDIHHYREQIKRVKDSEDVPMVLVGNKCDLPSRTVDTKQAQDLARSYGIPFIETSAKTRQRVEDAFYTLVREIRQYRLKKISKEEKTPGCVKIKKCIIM

Molecule	inhibition of cell growth (CCK-8) (HCT116 (KRas G13D))	inhibition of cell growth (CCK-8) (HT29 (KRas wt))	level of binding between TKD and the KRas protein (SPR) (KRas protein)	binding capacity with the KRas protein (SPR) (KRas protein)
B1	could significantly inhibit growth	could significantly inhibit growth	reached the level of antigen-antibody binding (nM)	had a strong binding capacity with the KRas protein in vitro
B2	could not achieve the same effect	could not achieve the same effect	–	had a strong binding capacity with the KRas protein in vitro

— patent US12508311B2, “Fusion protein, and preparation method and use thereof” (SUN YAT-SEN UNIVERSITY, priority 2021, dated 2025)
